Consider one molecule from paper PMC11079029, “Intramolecular autoinhibition regulates the selectivity of PRPF40A tandem WW domains for proline-rich motifs” (Nature Communications, 2024).

What all share (experiment): ITC; GB1-peptide or GB1-SF1 construct in the cell, PRPF40A WW12 in the syringe (as shown in Supplementary Figures 7 and 16A); 25 °C, 20 mM sodium phosphate pH 6.5, 100 mM NaCl; one-site binding model; at least duplicates; affinities apparent
Holding throughout (details): both partners purified

Assay [1] concerns the target T1, GB1-polyproline peptide P16.
T1 chain: PPPPPPPPPPPPPPPP

The target in assay [2] is T2, GB1-SF1 Pro A (residues 410-468) (UniProt Q15637 410-468).
T2 construct: splicing factor 1 (SF1), residues 410-468 of the proline-rich C-terminal region; His6-GB1-TEV site cassette of the pET24 vector, not cleaved; source: E. coli BL21(DE3), purified (Ni-NTA, SEC); not shown: GB1, N-terminal, kept
T2 sequence (looked up): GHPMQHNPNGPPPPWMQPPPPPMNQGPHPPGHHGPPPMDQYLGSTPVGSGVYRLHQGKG

Assay [3] deals with T3, GB1-polyproline peptide P25.
T3 chain: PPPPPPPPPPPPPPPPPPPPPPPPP

Assay [4] addresses T4, GB1-SF1 Pro D (residues 594-639) (UniProt Q15637 594-639).
T4 construct: splicing factor 1 (SF1), residues 594-639 of the proline-rich C-terminal region; His6-GB1-TEV site cassette of the pET24 vector, not cleaved; source: E. coli BL21(DE3), purified (Ni-NTA, SEC); not shown: GB1, N-terminal, kept
T4 chain (looked up): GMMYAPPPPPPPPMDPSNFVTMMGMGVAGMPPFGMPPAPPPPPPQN

The target of assay [5] is T5, GB1-polyproline peptide P29.
T5 chain: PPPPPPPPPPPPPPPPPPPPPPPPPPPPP

The target of assay [6] is T6, GB1-polyproline peptide P13.
T6 chain: PPPPPPPPPPPPP

The target of assay [7] is T7, GB1-polyproline peptide P19.
T7 chain: PPPPPPPPPPPPPPPPPPP

In assay [8] the target is T8, GB1-SF1 Pro C (residues 539-594) (UniProt Q15637 539-594).
T8 construct: splicing factor 1 (SF1), residues 539-594 of the proline-rich C-terminal region (holds the WWbs motif 575-590); His6-GB1-TEV site cassette of the pET24 vector, not cleaved; source: E. coli BL21(DE3), purified (Ni-NTA, SEC); not shown: GB1, N-terminal, kept
T8 sequence (looked up): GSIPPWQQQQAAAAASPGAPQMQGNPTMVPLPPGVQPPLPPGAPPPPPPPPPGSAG

In assay [9] the target is T9, GB1-polyproline peptide P22.
T9 chain: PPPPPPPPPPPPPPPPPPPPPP

In assay [10] the target is T10, GB1-SF1 Pro B (residues 468-539) (UniProt Q15637 468-539).
T10 construct: splicing factor 1 (SF1), residues 468-539 of the proline-rich C-terminal region; His6-GB1-TEV site cassette of the pET24 vector, not cleaved; source: E. coli BL21(DE3), purified (Ni-NTA, SEC); not shown: GB1, N-terminal, kept
T10 sequence (looked up): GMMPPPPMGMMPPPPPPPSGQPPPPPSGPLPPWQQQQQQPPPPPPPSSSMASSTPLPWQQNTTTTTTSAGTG

Assay [11] deals with T11, GB1-polyproline peptide P10.
T11 chain: PPPPPPPPPP

The target in assay [12] is T12, GB1-SF1 16-mer peptide 565-580.
T12 chain: TMVPLPPGVQPPLPPG

B1: PRPF40A WW12 (tandem WW domains, residues 141-236) (domain or fragment, human, UniProt O75400 141-236, looked up)
chain: GAKSMWTEHKSPDGRTYYYNTETKQSTWEKPDDLKTPAEQLLSKCPWKEYKSDSGKPYYYNSQTKESRWAKPKELEDLEGYQNTIVAGSLITKSNL
notes: A few vector residues probably remain at the N-terminus after TEV cleavage (pETM11, NcoI site); 15N-labelled in the NMR experiments; also called PRPF40A WW tandem; WW12 wt; source: E. coli BL21(DE3), purified (Ni-NTA, TEV digestion, reverse Ni-NTA, SEC); not shown: His6, N-terminal, cleaved
Regarding B1, the stoichiometry N (in general, the number of molecules, sites or subunits per partner or assembly) in assay [1] was 0.88 ± 0.08 sites; in assay [2], 0.99 ± 0.17 sites; in assay [3], 2.3 ± 0.09 sites; in [4], 0.87 ± 0.02 sites; in [5] it was 2.47 ± 0.09 sites; in assay [6] it was 0.78 ± 0.07 sites. Moreover, the “stoichiometry N” value came out at 1.1 ± 0.04 sites in assay [7]; 0.88 ± 0.01 sites in assay [8]; 1.39 ± 0.03 sites in assay [9]; 1.15 ± 0.15 sites in [10]; 0.89 ± 0.11 sites in assay [11]; 1.06 ± 0.11 sites in [12].
